Publication PMC7516004, “RICE CENTRORADIALIS 1, a TFL1-like Gene, Responses to Drought Stress and Regulates Rice Flowering Transition”

Key:
OSBZ8 = target: T1, OSBZ8 (Oryza sativa, UniProt Q40645 1-360); assay: EMSA; Chemiluminescent Nucleic Acid Detection Module Kit (Thermo) per manufacturer; binding buffer, salt, pH and temperature not stated; details: protein: recombinant; tags: His (pCold vector); chain copies: 2; label: biotin
T1 sequence: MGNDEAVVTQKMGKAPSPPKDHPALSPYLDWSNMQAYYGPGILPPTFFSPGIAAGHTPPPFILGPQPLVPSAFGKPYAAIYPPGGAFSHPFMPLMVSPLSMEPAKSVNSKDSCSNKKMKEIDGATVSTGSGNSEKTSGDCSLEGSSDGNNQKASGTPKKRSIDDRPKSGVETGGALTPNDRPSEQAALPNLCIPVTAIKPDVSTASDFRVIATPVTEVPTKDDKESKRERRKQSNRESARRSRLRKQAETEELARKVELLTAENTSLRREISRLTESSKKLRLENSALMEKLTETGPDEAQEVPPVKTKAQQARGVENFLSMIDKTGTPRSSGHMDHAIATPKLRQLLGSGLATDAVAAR

TRAB1 = target: T2, TRAB1 (Oryza sativa, UniProt Q6ZDF3 1-374); assay: as above; details: protein: recombinant; tags: His (pCold vector); chain copies: 2; label: biotin
T2 sequence: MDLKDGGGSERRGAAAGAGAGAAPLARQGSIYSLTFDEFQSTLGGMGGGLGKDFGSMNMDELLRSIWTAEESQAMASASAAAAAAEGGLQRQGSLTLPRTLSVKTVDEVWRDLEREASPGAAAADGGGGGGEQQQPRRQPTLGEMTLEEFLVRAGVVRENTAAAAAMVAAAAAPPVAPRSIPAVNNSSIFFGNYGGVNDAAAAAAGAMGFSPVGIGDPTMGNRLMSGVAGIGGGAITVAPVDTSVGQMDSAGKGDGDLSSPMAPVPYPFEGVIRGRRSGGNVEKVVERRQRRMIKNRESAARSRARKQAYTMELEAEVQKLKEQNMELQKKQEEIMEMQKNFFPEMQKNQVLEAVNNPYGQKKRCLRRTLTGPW

B1: Probe 13 (dsDNA)
DNA 1: CTTCATCTGACGTGACACTGACGTGGCGCTTACGTGGCAAGTTGA
DNA 2: TCAACTTGCCACGTAAGCGCCACGTCAGTGTCACGTCAGATGAAG
binding result (OSBZ8): binds | binding result (TRAB1): no binding

B2: Mutant-13 (dsDNA)
DNA 1: CTTCATCTGGACACTGGGCGCTTGGCAAGTTGA
DNA 2: TCAACTTGCCAAGCGCCCAGTGTCCAGATGAAG
binding result (OSBZ8): no binding

B3: Mutant-14 (dsDNA)
DNA 1: AGGAAAAATGGTGGGACCCGGGCCCCACATGTCATCCT
DNA 2: AGGATGACATGTGGGGCCCGGGTCCCACCATTTTTCCT
binding result (OSBZ8): no binding

B4: Probe 1 (dsDNA)
DNA 1: ATCGTGTTCTTCGCCGGCACGTGGTAATGGGCAGAATCTCC
DNA 2: GGAGATTCTGCCCATTACCACGTGCCGGCGAAGAACACGAT
binding result (OSBZ8): no binding | binding result (TRAB1): no binding

B5: Probe 2 (dsDNA)
DNA 1: AGCTTTGAAACATTTTCCACGTTTCATGAACCAACACTCAAT
DNA 2: ATTGAGTGTTGGTTCATGAAACGTGGAAAATGTTTCAAAGCT
binding result (OSBZ8): no binding | binding result (TRAB1): no binding

B6: Probe 3 (dsDNA)
DNA 1: GTCATTTTGAGGGGCTGACGTTTGGTGGACAGCGCAGTTT
DNA 2: AAACTGCGCTGTCCACCAAACGTCAGCCCCTCAAAATGAC
binding result (OSBZ8): no binding | binding result (TRAB1): no binding

B7: Probe 4 (dsDNA)
DNA 1: TTGAGTTTTTGCTTGCAACGTTTGACCACTCGTCTTATTC
DNA 2: GAATAAGACGAGTGGTCAAACGTTGCAAGCAAAAACTCAA
binding result (OSBZ8): no binding | binding result (TRAB1): no binding

B8: Probe 5 (dsDNA)
DNA 1: ATAAGACAAGTGGTCAAACGTTGCAAACAAAAACTCAAAA
DNA 2: TTTTGAGTTTTTGTTTGCAACGTTTGACCACTTGTCTTAT
binding result (OSBZ8): no binding | binding result (TRAB1): no binding

B9: Probe 6 (dsDNA)
DNA 1: TGTGGGACGGAGGGAGTACGTCACAAAAATTATGTTACAA
DNA 2: TTGTAACATAATTTTTGTGACGTACTCCCTCCGTCCCACA
binding result (OSBZ8): no binding | binding result (TRAB1): no binding

B10: Probe 7 (dsDNA)
DNA 1: TCCTACATACCCTCAGCACGTAAAGCGAGAAGTTTTATCT
DNA 2: AGATAAAACTTCTCGCTTTACGTGCTGAGGGTATGTAGGA
binding result (OSBZ8): no binding | binding result (TRAB1): no binding

B11: Probe 8 (dsDNA)
DNA 1: GATAAGATTGCTCAGCAACGTAATCTTCATAGATCCACTT
DNA 2: AAGTGGATCTATGAAGATTACGTTGCTGAGCAATCTTATC
binding result (OSBZ8): no binding | binding result (TRAB1): no binding

B12: Probe 9 (dsDNA)
DNA 1: TGTGGTTTTGGCTGACGTGGCGCCTACGTGGCGAATTTGACTC
DNA 2: GAGTCAAATTCGCCACGTAGGCGCCACGTCAGCCAAAACCACA
binding result (TRAB1): no binding

B13: Probe 10 (dsDNA)
DNA 1: TCTTCATCTGACGTGGCATTGATGTGGTGCTTACGTGGCACTTCGA
DNA 2: TCGAAGTGCCACGTAAGCACCACATCAATGCCACGTCAGATGAAGA
binding result (TRAB1): no binding

B14: Probe 11 (dsDNA)
DNA 1: AATAAAAATGGTGGGACCCACGTGGGCCCCACAAGTCATTCT
DNA 2: AGAATGACTTGTGGGGCCCACGTGGGTCCCACCATTTTTATT
binding result (TRAB1): no binding

B15: Probe 12 (dsDNA)
DNA 1: AGTCAAATTAGCCACGTAGGCGACACGTCAGCTAAAACCGC
DNA 2: GCGGTTTTAGCTGACGTGTCGCCTACGTGGCTAATTTGACT
binding result (TRAB1): no binding

B16: Probe 14 (dsDNA)
DNA 1: AGGAAAAATGGTGGGACCCACGTGGGCCCCACATGTCATCCT
DNA 2: AGGATGACATGTGGGGCCCACGTGGGTCCCACCATTTTTCCT
binding result (TRAB1): no binding

B17: Mutant-9 (dsDNA)
DNA 1: TGTGGTTTTGGCTGGGCGCCTGGCGAATTTGACTC
DNA 2: GAGTCAAATTCGCCAGGCGCCCAGCCAAAACCACA
binding result (OSBZ8): no binding

B18: Mutant-10 (dsDNA)
DNA 1: TCTTCATCTGGGCATTGATGTGGTGCTTGGCACTTCGA
DNA 2: TCGAAGTGCCAAGCACCACATCAATGCCCAGATGAAGA
binding result (OSBZ8): no binding

B19: Mutant-11 (dsDNA)
DNA 1: AATAAAAATGGTGGGACCCGGGCCCCACAAGTCATTCT
DNA 2: AGAATGACTTGTGGGGCCCGGGTCCCACCATTTTTATT
binding result (OSBZ8): no binding

B20: Mutant-12 (dsDNA)
DNA 1: AGTCAAATTAGCCAGGCGACCAGCTAAAACCGC
DNA 2: GCGGTTTTAGCTGGTCGCCTGGCTAATTTGACT
binding result (OSBZ8): no binding
